According to patent publication US20240301063A1 (SHANDONG NEW TIME PHARMACEUTICAL, published 2024):

Legend:
[1] = molecular target: T1, cynomolgus monkey CD3 on cynomolgus monkey T cells (cynomolgus monkey, UniProt Q95LI5 22-198; Q95LI8 22-171; Q95LI7 23-181); assay: flow cytometry on cynomolgus monkey T cells
T1 construct: Native CD3 on T cells
Procedure: Centrifuge to remove supernatant, wash the plate twice with 1% DPBS, add 100 μl 1% DPBS to each well for resuspension, and detect the signal intensity by flow cytometry.

[2] = molecular target: T2, human BCMA on BCMA positive cells (human, UniProt Q02223 1-184); assay: cell-based or functional assay
T2 sequence (looked up): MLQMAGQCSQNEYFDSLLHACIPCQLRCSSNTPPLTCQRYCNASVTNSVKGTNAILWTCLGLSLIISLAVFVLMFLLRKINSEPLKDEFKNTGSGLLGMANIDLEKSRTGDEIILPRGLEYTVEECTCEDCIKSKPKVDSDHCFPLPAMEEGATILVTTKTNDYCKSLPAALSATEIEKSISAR

T1 sequence (Q95LI5 22-198 limits assumed, chain 1 of 3): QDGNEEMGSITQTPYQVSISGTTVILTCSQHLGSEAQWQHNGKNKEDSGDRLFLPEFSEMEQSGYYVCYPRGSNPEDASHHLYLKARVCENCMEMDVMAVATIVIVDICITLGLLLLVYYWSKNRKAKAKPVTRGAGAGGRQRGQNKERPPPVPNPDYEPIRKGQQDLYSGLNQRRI
T1 sequence (Q95LI8 22-171 limits assumed, chain 2 of 3): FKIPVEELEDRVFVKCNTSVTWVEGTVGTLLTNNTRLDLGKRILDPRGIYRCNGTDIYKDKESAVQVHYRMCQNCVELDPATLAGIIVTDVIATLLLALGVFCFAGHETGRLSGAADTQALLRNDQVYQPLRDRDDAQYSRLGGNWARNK
T1 sequence (Q95LI7 23-181 limits assumed, chain 3 of 3): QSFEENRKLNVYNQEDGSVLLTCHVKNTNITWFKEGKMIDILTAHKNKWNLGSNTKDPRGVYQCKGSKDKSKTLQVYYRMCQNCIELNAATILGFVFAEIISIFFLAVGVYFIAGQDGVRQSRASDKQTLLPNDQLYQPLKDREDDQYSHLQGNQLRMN

B1: bispecific antibody AP163 (bispecific antibody)
chain: QVQLVQSGAEVKKPGSSVKVSCKASGGTFSNYWMHWVRQAPGQGLEWMGATYRGHSDTYYNQKFKGRVTITADKSTSTAYMELSSLRSEDTAVYYCARGAIYDGYDVLDNWGQGTLVTVSSGGGGSGGGGSGGGGSDIQMTQSPSSLSASVGDRVTITCSASQDISNYLNWYQQKPGKAPKLLIYYTSNLHSGVPSRFSGSGSGTDFTLTISSLQPEDFATYYCQQYRKLPWTFGQGTKLEIKGGGGGGSGGGGSGGGGSSSSSKAPPPSEVQLLESGGGLVQPGGSLKLSCAASGFTFNTYAMNWVRQAPGKGLEWVARIRSKYNNYATYYADSVKDRFTISRDDSKNTAYLQMNNLKTEDTAVYYCVRHGNFGNSYVSWFAYWGQGTLVTVSSGGGGSGGGGSGGGGSELVVTQEPSLTVSPGGTVTLTCRSSTGAVTTSNYANWVQQKPGQAPRGLIGGTNKRAPGTPARFSGSLLGGKAALTLSGVQPEDEAEYYCALWYSNLWVFGGGTKLTVLDKTHTCPPCPAPEAAGGPSVFLFPPKPKDQLMISRTPEVTCVVVDVSHEDPEVKFNWYVDGVEVHNAKTKPREEQYASTYRVVSVLTVLHQDWLNGKEYKCKVSNKALPASIEKTISKAKGQPREPQVYTLPPSRDELTKNQVSLTCLVKGFYPSDIAVEWESNGQPENNYKTTPPVLDSDGSFFLYSKLTVDKSRWQQGNVFSCSVLHEALHNHYTQKSLSLSPG
notes: human IgG1 Fc with L234A, L235A, T250Q, N297A, P331S, M428L and K447 deleted (EU); also called anti-BCMA×CD3 bispecific antibody
binding result [1]: binds
EC50 of activation of NFAT-Jurkat reporter cells (luciferase) in the presence of H929 cells [2]: 3.16 ng/mL
EC50 of cynomolgus monkey T cells killing NCI-H929 tumor cells mediated by AP163 [2]: 0.278 pM
EC50 of human T cells killing NCI-H929 tumor cells mediated by AP163 [2]: 0.239 pM
